Here are results for one variant from IntAct's records for PubMed 19556541.

B1: Polycystin-2 (Homo sapiens), Q13563-1 (parent)
chain: MVNSSRVQPQQPGDAKRPPAPRAPDPGRLMAGCAAVGASLAAPGGLCEQRGLEIEMQRIRQAAARDPPAGAAASPSPPLSSCSRQAWSRDNPGFEAEEEEEEVEGEEGGMVVEMDVEWRPGSRRSAASSAVSSVGARSRGLGGYHGAGHPSGRRRRREDQGPPCPSPVGGGDPLHRHLPLEGQPPRVAWAERLVRGLRGLWGTRLMEESSTNREKYLKSVLRELVTYLLFLIVLCILTYGMMSSNVYYYTRMMSQLFLDTPVSKTEKTNFKTLSSMEDFWKFTEGSLLDGLYWKMQPSNQTEADNRSFIFYENLLLGVPRIRQLRVRNGSCSIPQDLRDEIKECYDVYSVSSEDRAPFGPRNGTAWIYTSEKDLNGSSHWGIIATYSGAGYYLDLSRTREETAAQVASLKKNVWLDRGTRATFIDFSVYNANINLFCVVRLLVEFPATGGVIPSWQFQPLKLIRYVTTFDFFLAACEIIFCFFIFYYVVEEILEIRIHKLHYFRSFWNCLDVVIVVLSVVAIGINIYRTSNVEVLLQFLEDQNTFPNFEHLAYWQIQFNNIAAVTVFFVWIKLFKFINFNRTMSQLSTTMSRCAKDLFGFAIMFFIIFLAYAQLAYLVFGTQVDDFSTFQECIFTQFRIILGDINFAEIEEANRVLGPIYFTTFVFFMFFILLNMFLAIINDTYSEVKSDLAQQKAEMELSDLIRKGYHKALVKLKLKKNTVDDISESLRQGGGKLNFDELRQDLKGKGHTDAEIEAIFTKYDQDGDQELTEHEHQQMRDDLEKEREDLDLDHSSLPRPMSSRSFPRSLDDSEEDDDEDSGHSSRRRGSISSGVSYEEFQVLVRRVDRMEHSIGSIVSKIDAVIVKLEIMERAKLKRREVLGRLLDGVAEDERLGRDSEIHREQMERLVREELERWESDDAASQISHGLGTPVGLNGQPRPRSSRPSSSQSTEGMEGAGGNGSSNVHV

Variants of B1 are the subject of the test. The settings on record: with pkd1_human PKD1, P98161.
Sequence of pkd1_human PKD1, P98161 (P98161 whole entry, looked up): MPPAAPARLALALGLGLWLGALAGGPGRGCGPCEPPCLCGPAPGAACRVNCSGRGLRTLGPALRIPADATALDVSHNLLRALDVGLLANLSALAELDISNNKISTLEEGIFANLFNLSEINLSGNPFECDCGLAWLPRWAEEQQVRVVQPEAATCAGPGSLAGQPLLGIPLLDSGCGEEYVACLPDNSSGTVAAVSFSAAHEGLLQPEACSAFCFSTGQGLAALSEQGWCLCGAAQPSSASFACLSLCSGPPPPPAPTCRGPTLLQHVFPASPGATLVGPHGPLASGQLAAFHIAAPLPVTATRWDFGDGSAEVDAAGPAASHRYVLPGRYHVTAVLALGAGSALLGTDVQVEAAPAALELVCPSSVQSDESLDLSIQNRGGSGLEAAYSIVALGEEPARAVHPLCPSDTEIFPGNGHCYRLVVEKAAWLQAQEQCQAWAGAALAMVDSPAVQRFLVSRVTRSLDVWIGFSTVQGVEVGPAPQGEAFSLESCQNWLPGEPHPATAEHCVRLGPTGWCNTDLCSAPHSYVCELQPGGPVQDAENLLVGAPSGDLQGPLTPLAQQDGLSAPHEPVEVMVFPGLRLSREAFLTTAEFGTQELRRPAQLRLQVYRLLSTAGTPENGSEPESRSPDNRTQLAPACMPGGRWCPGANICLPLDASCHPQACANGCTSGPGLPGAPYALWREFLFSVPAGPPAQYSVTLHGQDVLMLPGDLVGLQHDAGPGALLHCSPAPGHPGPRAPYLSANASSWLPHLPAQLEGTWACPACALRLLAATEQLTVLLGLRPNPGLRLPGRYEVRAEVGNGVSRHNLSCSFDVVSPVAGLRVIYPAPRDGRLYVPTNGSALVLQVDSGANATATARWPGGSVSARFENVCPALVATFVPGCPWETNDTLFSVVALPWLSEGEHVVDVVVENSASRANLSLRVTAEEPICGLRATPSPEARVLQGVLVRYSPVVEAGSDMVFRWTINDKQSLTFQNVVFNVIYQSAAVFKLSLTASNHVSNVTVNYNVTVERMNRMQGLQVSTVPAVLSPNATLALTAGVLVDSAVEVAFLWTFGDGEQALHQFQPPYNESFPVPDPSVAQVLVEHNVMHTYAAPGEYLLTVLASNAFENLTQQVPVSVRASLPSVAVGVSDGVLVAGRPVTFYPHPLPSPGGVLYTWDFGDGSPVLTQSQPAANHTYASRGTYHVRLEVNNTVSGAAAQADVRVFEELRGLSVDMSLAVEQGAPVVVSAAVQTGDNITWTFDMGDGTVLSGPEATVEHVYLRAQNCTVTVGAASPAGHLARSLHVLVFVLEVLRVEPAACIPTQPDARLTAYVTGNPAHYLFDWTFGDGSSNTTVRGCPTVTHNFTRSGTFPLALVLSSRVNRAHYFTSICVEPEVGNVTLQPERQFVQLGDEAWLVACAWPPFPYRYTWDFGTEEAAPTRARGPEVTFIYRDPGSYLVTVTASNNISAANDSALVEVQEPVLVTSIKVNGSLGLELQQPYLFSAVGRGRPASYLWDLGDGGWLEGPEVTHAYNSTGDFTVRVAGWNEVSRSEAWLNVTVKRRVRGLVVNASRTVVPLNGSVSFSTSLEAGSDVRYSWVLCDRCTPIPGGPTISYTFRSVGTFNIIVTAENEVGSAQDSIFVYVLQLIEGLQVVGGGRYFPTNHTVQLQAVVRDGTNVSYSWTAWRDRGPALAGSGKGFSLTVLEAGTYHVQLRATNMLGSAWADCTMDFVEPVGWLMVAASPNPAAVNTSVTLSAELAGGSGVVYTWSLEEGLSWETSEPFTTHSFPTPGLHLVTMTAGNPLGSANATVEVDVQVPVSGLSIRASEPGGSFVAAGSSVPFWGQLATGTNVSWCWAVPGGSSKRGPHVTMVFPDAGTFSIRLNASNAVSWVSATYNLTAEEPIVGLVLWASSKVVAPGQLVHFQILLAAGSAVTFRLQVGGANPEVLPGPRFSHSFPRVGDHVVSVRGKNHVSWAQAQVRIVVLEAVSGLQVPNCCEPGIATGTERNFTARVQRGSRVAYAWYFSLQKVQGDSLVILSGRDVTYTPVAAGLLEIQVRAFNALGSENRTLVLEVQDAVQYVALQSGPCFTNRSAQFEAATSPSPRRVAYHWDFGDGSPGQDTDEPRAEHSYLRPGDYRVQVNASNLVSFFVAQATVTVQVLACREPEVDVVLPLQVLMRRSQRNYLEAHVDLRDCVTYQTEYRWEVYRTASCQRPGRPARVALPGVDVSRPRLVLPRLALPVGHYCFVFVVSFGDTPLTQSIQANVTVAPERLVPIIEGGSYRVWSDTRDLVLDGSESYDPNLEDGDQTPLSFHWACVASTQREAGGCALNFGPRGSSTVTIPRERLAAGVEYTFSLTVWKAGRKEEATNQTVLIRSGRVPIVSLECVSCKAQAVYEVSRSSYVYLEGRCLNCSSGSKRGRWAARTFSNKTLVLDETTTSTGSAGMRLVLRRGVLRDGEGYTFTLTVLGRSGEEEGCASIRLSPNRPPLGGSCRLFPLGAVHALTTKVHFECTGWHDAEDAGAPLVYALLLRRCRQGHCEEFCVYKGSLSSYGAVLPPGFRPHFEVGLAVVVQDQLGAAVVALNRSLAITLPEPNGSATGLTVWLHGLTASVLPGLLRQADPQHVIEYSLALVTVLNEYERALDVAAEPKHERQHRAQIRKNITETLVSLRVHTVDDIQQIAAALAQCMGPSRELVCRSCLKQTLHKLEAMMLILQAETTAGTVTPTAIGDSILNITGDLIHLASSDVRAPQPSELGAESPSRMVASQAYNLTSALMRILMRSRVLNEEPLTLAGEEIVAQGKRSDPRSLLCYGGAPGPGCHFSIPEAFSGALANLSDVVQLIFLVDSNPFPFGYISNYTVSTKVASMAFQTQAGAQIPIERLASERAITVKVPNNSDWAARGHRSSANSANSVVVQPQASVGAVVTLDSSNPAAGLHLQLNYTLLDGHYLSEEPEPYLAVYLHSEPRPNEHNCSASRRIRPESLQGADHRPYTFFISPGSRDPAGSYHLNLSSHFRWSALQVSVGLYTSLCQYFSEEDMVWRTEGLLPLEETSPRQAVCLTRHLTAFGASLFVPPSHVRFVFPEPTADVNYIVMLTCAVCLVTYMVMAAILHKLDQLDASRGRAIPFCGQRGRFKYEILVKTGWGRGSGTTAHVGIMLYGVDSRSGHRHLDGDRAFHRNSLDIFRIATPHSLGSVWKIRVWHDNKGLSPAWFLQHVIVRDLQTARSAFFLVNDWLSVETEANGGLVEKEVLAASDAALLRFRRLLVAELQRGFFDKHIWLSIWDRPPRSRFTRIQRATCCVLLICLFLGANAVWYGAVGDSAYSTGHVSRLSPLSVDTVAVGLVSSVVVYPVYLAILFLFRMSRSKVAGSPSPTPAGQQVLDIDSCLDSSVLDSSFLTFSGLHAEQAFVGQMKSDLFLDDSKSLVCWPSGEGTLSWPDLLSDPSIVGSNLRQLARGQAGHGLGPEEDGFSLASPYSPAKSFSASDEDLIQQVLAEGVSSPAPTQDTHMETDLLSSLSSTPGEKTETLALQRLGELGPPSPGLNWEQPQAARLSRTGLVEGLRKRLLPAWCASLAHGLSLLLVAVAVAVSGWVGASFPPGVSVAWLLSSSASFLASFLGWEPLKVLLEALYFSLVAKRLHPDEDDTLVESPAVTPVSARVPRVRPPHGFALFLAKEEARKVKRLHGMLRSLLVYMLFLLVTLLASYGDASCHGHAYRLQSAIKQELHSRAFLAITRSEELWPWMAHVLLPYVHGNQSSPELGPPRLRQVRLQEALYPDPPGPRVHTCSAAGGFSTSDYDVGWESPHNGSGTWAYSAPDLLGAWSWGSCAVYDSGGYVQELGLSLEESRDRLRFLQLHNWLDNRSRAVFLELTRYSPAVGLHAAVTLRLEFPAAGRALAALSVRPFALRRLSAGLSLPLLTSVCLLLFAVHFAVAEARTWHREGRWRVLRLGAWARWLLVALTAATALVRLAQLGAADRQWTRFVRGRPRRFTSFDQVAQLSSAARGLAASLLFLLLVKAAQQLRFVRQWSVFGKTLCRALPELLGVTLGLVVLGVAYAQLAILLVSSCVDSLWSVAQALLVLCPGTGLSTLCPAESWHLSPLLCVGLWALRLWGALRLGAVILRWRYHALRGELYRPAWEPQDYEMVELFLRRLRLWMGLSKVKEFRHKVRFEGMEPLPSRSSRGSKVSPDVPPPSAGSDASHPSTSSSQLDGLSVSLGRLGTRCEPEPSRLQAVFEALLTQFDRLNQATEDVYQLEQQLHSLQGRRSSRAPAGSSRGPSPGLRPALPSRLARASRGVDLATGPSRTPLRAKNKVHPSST
In the case of L842A;V846A;M849A;I860A;V863A;L867A, the “effect of a mutation on the interaction” value is recorded as “disrupting interaction strength”.
